# Laboratory results: publication PMC6642826
# B1: (His)6-IKBε(40–364) (domain or fragment)
# chain: SSQSGCPQPWRHAPETHKEPEKEDADGERADSTYASSSLTESFPLLERPEAKDPSPPAPGSPLPPAGVLSPQQLEALTYISEDGDTLLHLAVIHEAPSVLFCCLAFLPQEVLDIQNNLYQTALHLAVHLDQPDVVRALVLKGASRILQDQHGDTALHVACRRQNLACACCLLEEQPEPGRQLSHPLDLQLKNWQGLACLHIATLQRNQPLIELLLQNGADIDVQEGTSGKTALHLAVETQERSLVQFLLQAGARVDARMLNGCTPLHLAAGRGLNSISSTLCEAGADSLLLNVEDETPQDLAEDLLSYLPFDDLKISGKPLLCTD
# Tests used:
# [1] = target: RelA homodimer as used for SPR (murine) (UniProt Q04207); test: SPR
# [2] = target: Oregon Green 488-labelled RelA dimerization domain homodimer (murine) (UniProt Q04207); test: fluorescence polarisation
# [3] = target: RelA-p50 heterodimer as used for SPR (murine) (UniProt Q04207); test: SPR
# [4] = target: Oregon Green 488-labelled RelA(19–321)-p50(39–350) heterodimer (murine) (UniProt Q04207); test: fluorescence polarisation
# [5] = target: Oregon Green 488-labelled p50(39–350)-cRel(1–294) heterodimer (murine) (UniProt P25799); test: fluorescence polarisation
# [6] = target: RelA (Mus musculus) (UniProt Q04207); settings: cited from earlier work
# [7] = target: labelled p50(39–350) homodimer (murine) (UniProt P25799); test: fluorescence polarisation
molecule,measurement,setting,value
IKBα(67–287) (from UniProt P25963 67-287) (domain or fragment),Kd,[1],0.054 nM
same,Kd,[2],0.28 nM
IKBβ(50–359) (domain or fragment),Kd,[1],0.07 nM
same,Kd,[3],1.1 nM
same,Kd,[2],0.072 nM
same,Kd,[4],0.89 nM
same,Kd,[5],0.92 nM
RelA (from UniProt Q04207),Kd,[6],800 nM
B1,Kd,[7],0.81 nM
